Reference: the supplement of paper PMC7125110
± gives the standard error. This sample holds only a part of the variants without activity.

B1: glmS ribozyme (parent)
chain: AUAAAAGCGCCAGAACUACAGAAAUGUAGUUGACGAGGAGGAGGUUUAUCGAAUUUUCGGCGGAUGCCUCCAAA

How the values were obtained:
Conditions in all cases: with glucosamine-6-phosphate
glucosamine-6-phosphate [1] = variants of: B1; assay: self-cleavage kobs at 40 uM GlcN6P; higher = faster cleavage; RNA array
How it was run: (§1)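 Barcoded ribozyme variants were transcribed in situ on sequenced MiSeq chips by E. coli RNA polymerase. At 37 °C, a hybridised Cy3 probe tracked them while glucosamine-6-phosphate (40 μM to 10 mM) in HEPES/KCl/Mg(OAc)2 buffer flowed in and tiles were imaged over ~14 h. Per-tile medians of signals normalised to baseline and to non-cleaving reference variants were fit to one- or two-exponential decays, giving kobs. kcat and KM came from weighted Michaelis–Menten fits across concentrations.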

glucosamine-6-phosphate [2] = variants of: B1; assay: self-cleavage kobs at 160 uM GlcN6P; higher = faster cleavage; RNA array
How it was run: as §1

glucosamine-6-phosphate [3] = variants of: B1; assay: self-cleavage kobs at 10000 uM GlcN6P; higher = faster cleavage; RNA array
How it was run: as §1

glucosamine-6-phosphate [4] = variants of: B1; assay: self-cleavage kobs at 2500 uM GlcN6P; higher = faster cleavage; RNA array
How it was run: as §1

glucosamine-6-phosphate [5] = variants of: B1; assay: self-cleavage kobs at 640 uM GlcN6P; higher = faster cleavage; RNA array
How it was run: as §1

Variant	self-cleavage kobs at 40 uM GlcN6P (glucosamine-6-phosphate [1]) [s⁻¹]	self-cleavage kobs at 160 uM GlcN6P (glucosamine-6-phosphate [2]) [s⁻¹]	self-cleavage kobs at 10000 uM GlcN6P (glucosamine-6-phosphate [3]) [s⁻¹]	self-cleavage kobs at 2500 uM GlcN6P (glucosamine-6-phosphate [4]) [s⁻¹]	self-cleavage kobs at 640 uM GlcN6P (glucosamine-6-phosphate [5]) [s⁻¹]
U30A G63U	< 1e-05	< 1e-05	< 1e-05		
U30C A33G G66U C71G	< 1e-05		< 1e-05		
U31A A33G A39U G43A A48U	< 1e-05		< 1e-05		
U30C G38U C61U	< 1e-05				
U31A U49G C71U	< 1e-05				
U30A G37C U65C	< 1e-05			< 1e-05	
U31G A36G U69A	< 1e-05		< 1e-05		
U31C G38C A39C	< 1e-05			< 1e-05	
U30C G35U G41A U47A U57A C61G G63C C70A	< 1e-05		< 1e-05		
U30A A33U U56C	< 1e-05				
G29U U31C C50G	6.96e-05 ± 3.2e-05		5.39e-05 ± 2.3e-05		
U30G C71U	0.00033 ± 5e-05	0.000449 ± 0.00011	0.00769 ± 0.0016	0.00639 ± 0.0013	0.00135 ± 0.00022
G29U U47A U57G	< 1e-05				
U30G A36U G51A	< 1e-05				
U31C U69C	4.67e-05 ± 1.5e-05	5.62e-05 ± 1.5e-05	0.0013 ± 0.00035	0.00045 ± 8.2e-05	0.000232 ± 6.2e-05
U31A U45G U54G C58A C61A	< 1e-05	< 1e-05	< 1e-05		
U31A U55G	0.000331 ± 5.6e-05	0.000659 ± 9.3e-05	0.0123 ± 0.0044	0.00546 ± 0.0012	0.0036 ± 0.00064
U30G A33C A42C	< 1e-05		< 1e-05		
U30C G62C	< 1e-05		< 1e-05		< 1e-05
U31G A64U	< 1e-05	< 1e-05		< 1e-05	< 1e-05
U30A U54A G59U G62U C67U C70U	< 1e-05		< 1e-05		
U30G U47A	0.000162 ± 3.5e-05		0.00566 ± 0.0013		
U31G C61G	< 1e-05	< 1e-05	< 1e-05		< 1e-05
U31G C61A	< 1e-05	< 1e-05	< 1e-05	< 1e-05	
U30A C61U	< 1e-05		< 1e-05		< 1e-05

Variant	self-cleavage kobs at 40 uM GlcN6P (glucosamine-6-phosphate [1]) [s⁻¹]	self-cleavage kobs at 160 uM GlcN6P (glucosamine-6-phosphate [2]) [s⁻¹]	self-cleavage kobs at 10000 uM GlcN6P (glucosamine-6-phosphate [3]) [s⁻¹]	self-cleavage kobs at 2500 uM GlcN6P (glucosamine-6-phosphate [4]) [s⁻¹]	self-cleavage kobs at 640 uM GlcN6P (glucosamine-6-phosphate [5]) [s⁻¹]
U30A G38A U65C C70G	< 1e-05		< 1e-05		< 1e-05
G29U G44A	< 1e-05	< 1e-05	3.45e-05 ± 9.6e-06		
U30A A48G	< 1e-05	< 1e-05			< 1e-05
U30A U49C U55A	< 1e-05				
U31C C68A	< 1e-05		< 1e-05		
U30C G35A C50G C61U A64G	0.000165 ± 5.1e-05				
G29U U45A C61A	< 1e-05				
U31C A33C A36G C71G	< 1e-05				
U30G U56A G66A	5.14e-05 ± 1.7e-05		0.00252 ± 0.00061		
G29U U55G	4.62e-05 ± 1.1e-05		0.00239 ± 0.0003	0.00177 ± 0.00029	0.000282 ± 5.3e-05
U30A G60U C71U	< 1e-05		< 1e-05		
U30G A36G U54G	< 1e-05		< 1e-05		
U30C A33C	< 1e-05	< 1e-05			< 1e-05
G29U G43A G63A	< 1e-05				
G29U G40C A52G	< 1e-05				
U31C C70U	0.000152 ± 1.5e-05	0.000343 ± 4.1e-05		0.00284 ± 0.00074	0.000731 ± 6.7e-05
U30C G37U	< 1e-05				
U31C G44A C71U	< 1e-05	< 1e-05			< 1e-05
U30G G38U A39U G66A	< 1e-05		< 1e-05		
U31A C61A A64U	< 1e-05		< 1e-05		
U30C G37C C58A G60U	< 1e-05		< 1e-05		
U31A U56A	0.000218 ± 3.2e-05		0.00967 ± 0.0011	0.00123 ± 0.0005	0.00221 ± 0.00061
U31G G43C	< 1e-05	< 1e-05		< 1e-05	< 1e-05
U31C G60C	< 1e-05		< 1e-05		
U31C G60A	< 1e-05		< 1e-05		< 1e-05

Variant	self-cleavage kobs at 40 uM GlcN6P (glucosamine-6-phosphate [1]) [s⁻¹]	self-cleavage kobs at 160 uM GlcN6P (glucosamine-6-phosphate [2]) [s⁻¹]	self-cleavage kobs at 10000 uM GlcN6P (glucosamine-6-phosphate [3]) [s⁻¹]	self-cleavage kobs at 2500 uM GlcN6P (glucosamine-6-phosphate [4]) [s⁻¹]	self-cleavage kobs at 640 uM GlcN6P (glucosamine-6-phosphate [5]) [s⁻¹]
U31C G32A G60U	< 1e-05		< 1e-05	< 1e-05	
U30A A42G	0.000294 ± 7.3e-05		0.0172 ± 0.0059		0.0017 ± 0.00047
U31G C34U A42G	< 1e-05	< 1e-05	< 1e-05	< 1e-05	< 1e-05
U30A U56A	9.28e-05 ± 1.4e-05		0.00496 ± 0.00075		
U31A A36G A52C	< 1e-05		< 1e-05		
U30C U47C	< 1e-05	< 1e-05			
U30A G41A G60A C70U	< 1e-05				
U30C G51C	< 1e-05		< 1e-05		
U31C U69C C70A	< 1e-05				
U30A A33U C34G G37A	< 1e-05				
U30A C58A G60C U69G	< 1e-05		< 1e-05		
U31G A48U	< 1e-05		5.93e-05 ± 2.1e-05	8.46e-05 ± 1.6e-05	
U30C C50A A53G U69C C70G	5.5e-05 ± 1.9e-05				
U30A C50G U54A U69G	5.79e-05 ± 1.6e-05				
G29U U56A	4.68e-05 ± 1.4e-05	9.32e-05 ± 2e-05	0.00285 ± 0.00045		0.000211 ± 7e-05
U31A A64C	< 1e-05		4.57e-05 ± 1e-05		
U31G A33G U56C	< 1e-05	< 1e-05		< 1e-05	< 1e-05
U30G U47C C70G	< 1e-05		7.72e-05 ± 2.2e-05	0.000116 ± 2.6e-05	5.55e-05 ± 2e-05
U30A G43C	< 1e-05		< 1e-05		< 1e-05
U30G G62A	< 1e-05	< 1e-05	< 1e-05		< 1e-05
U31C G51U	< 1e-05		< 1e-05		
U31C G51C	< 1e-05		< 1e-05	< 1e-05	
U31C U45A G60A C67A	< 1e-05	< 1e-05			
G29U U56G G62U	< 1e-05				
U30A U31C C50G U56G C61G	3.8e-05 ± 1.5e-05				

Variant	self-cleavage kobs at 40 uM GlcN6P (glucosamine-6-phosphate [1]) [s⁻¹]	self-cleavage kobs at 160 uM GlcN6P (glucosamine-6-phosphate [2]) [s⁻¹]	self-cleavage kobs at 10000 uM GlcN6P (glucosamine-6-phosphate [3]) [s⁻¹]	self-cleavage kobs at 2500 uM GlcN6P (glucosamine-6-phosphate [4]) [s⁻¹]	self-cleavage kobs at 640 uM GlcN6P (glucosamine-6-phosphate [5]) [s⁻¹]
U30C G44A	< 1e-05	< 1e-05	< 1e-05		< 1e-05
U30C G43U C70A	< 1e-05				
U30C G43A U46A	< 1e-05				
U30C G35C G59C	< 1e-05		< 1e-05		
U30G A36U C50G C67U	0.000201 ± 3.9e-05		0.00055 ± 0.00011		
U30A G60U	< 1e-05	< 1e-05	< 1e-05		< 1e-05
U30G A53G	0.000307 ± 5.3e-05	0.00064 ± 0.00013	0.0151 ± 0.0037	0.00534 ± 0.00076	0.00172 ± 0.0004
U30G U31G U46G U55A	0.000118 ± 3.3e-05		0.00358 ± 0.00067		
U31C U56G	0.000154 ± 1.9e-05	0.000413 ± 9.2e-05	0.00757 ± 0.00091	0.00194 ± 0.0003	0.000899 ± 0.00013
U30A C70U	0.000214 ± 3.6e-05	0.000386 ± 7.4e-05	0.00358 ± 0.00063	0.00125 ± 0.00027	0.000765 ± 0.00011
U31A G62C	< 1e-05	< 1e-05	< 1e-05	< 1e-05	
U31A G38U A42C U55G	< 1e-05				< 1e-05
U30C G35A	< 1e-05	< 1e-05	< 1e-05	< 1e-05	< 1e-05
U30A G62A	< 1e-05		< 1e-05	< 1e-05	< 1e-05
U30C A48U	< 1e-05	< 1e-05	< 1e-05		< 1e-05
U30C U45A U47C C50U G60U C68U	< 1e-05				
G29U G37C A42U	< 1e-05			< 1e-05	< 1e-05
U31A G35C A36U	< 1e-05		< 1e-05		< 1e-05
U31C G32C G35A G59U G66U C71U	< 1e-05		< 1e-05	< 1e-05	
U30G G60U	< 1e-05		< 1e-05		< 1e-05
U30A G44U	< 1e-05				
U30C U31C	3.3e-05 ± 1.1e-05	0.000413 ± 7.4e-05	0.00328 ± 0.00041	0.00125 ± 0.00016	0.000788 ± 0.00016
U31G C50G C67U	8.62e-05 ± 1.8e-05		0.000109 ± 2.3e-05		
G29U U30A U31G A53U	< 1e-05				7.01e-05 ± 2.6e-05
G29U G60C C70A	< 1e-05				
